According to IntAct's records for PubMed 27284196:

B1: Transcriptional regulator LdrP (Thermus thermophilus (strain HB8 / ATCC 27634 / DSM 579)), Q53W63 (parent)
chain: MKRFARKETIYLRGEEARTLYRLEEGLVRVVELLPDGRLITLRHVLPGDYFGEEALEGKAYRYTAEAMTEAVVQGLEPRAMDHEALHRVARNLARQMRRVQAYEAHLQTGELRARIARYLLFLADTPLSARDRQGIYVTVSHEEIADATASIRESVSKVLADLRREGLIATAYRRVYLLDLAALEREAGSALEAA
partner: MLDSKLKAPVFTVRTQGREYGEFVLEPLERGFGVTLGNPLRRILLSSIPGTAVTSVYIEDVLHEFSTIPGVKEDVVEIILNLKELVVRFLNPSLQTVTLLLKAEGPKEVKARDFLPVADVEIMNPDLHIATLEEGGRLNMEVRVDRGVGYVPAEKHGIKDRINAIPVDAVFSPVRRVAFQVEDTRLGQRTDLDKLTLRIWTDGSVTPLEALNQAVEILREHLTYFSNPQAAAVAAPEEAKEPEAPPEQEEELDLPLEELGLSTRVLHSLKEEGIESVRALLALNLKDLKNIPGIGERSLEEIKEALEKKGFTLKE

Variants of: B1
Details: with rpoa_thet8 rpoA

| effect of a mutation on the interaction | Variant |
| --- | --- |
| disrupting interaction strength | D125K |
| disrupting interaction strength | E185K |
